Here are results for one sequence from paper PMC8265659.

Data set [1] deals with T1, PorX-C-His6 (Porphyromonas gingivalis (33277?)) (UniProt B2RJJ3).
T1 sequence: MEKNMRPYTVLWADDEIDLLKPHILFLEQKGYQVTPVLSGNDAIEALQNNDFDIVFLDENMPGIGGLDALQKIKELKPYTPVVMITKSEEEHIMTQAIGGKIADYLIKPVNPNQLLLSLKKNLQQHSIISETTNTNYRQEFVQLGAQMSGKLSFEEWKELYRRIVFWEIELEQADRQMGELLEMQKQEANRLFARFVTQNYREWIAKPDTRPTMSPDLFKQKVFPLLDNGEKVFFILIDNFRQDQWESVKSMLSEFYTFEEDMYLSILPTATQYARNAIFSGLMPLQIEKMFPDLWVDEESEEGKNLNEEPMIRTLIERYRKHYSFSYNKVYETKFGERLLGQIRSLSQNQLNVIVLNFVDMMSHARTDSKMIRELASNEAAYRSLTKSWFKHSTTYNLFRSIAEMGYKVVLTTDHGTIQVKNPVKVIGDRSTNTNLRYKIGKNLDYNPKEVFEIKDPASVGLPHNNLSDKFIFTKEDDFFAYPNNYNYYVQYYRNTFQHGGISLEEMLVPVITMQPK
Put plainly: DNase I footprinting. Conditions: EMSA: 10 mM Tris-HCl pH 7.5, 1 mM EDTA, 5 mM DTT, 10 mM NaCl, 1 mM MgCl2, 5% glycerol, room temperature, 30 min.

Data set [2] concerns the target T1, PorX-C-His6 (Porphyromonas gingivalis (33277?)). Put plainly: EMSA. The following applies: EMSA: 10 mM Tris-HCl pH 7.5, 1 mM EDTA, 5 mM DTT, 10 mM NaCl, 1 mM MgCl2, 5% glycerol, room temperature, 30 min. In general terms: Mobility shift assays separate free from complexed probe on a gel.

As to “CCGAGTACGTTTACCCCGGCCCGATACAGTTCTTCGGCCCCGAACATGTATGCGATAGCCCCACGATGACACTCCGCTTGGAAAAGAACGATCGCTGACTCTTCCGCTGCATTAGTCGGGTTGATAAGCAGTTGCTTCTGTTTGTTTTGTCGAAAAAAATGTTTTTCTTTGCAATAAGTCTCATTTAAAAGAATCGCCTATCGACGCATATCTACCTTCTGAACAATAAATAAAGAGGATTCTCCTATGAGCAGTTTCCACAAGCTGACTGATGA (double strand) [T1 sigP promoter fragment (275 bp)]”, the binding entry in data set [1] and in data set [2] was “binds” throughout.
